# Experimental data published in patent US20130115256A1 (published 2013).
# Where no end group is shown, it is not given here.
# Columns and labels:
# Experiment in all cases: cell-based or functional assay
# [1] = biological target: p38 MAPK (p38 Mitogen-Activated Protein Kinase)
# [2] = biological target: T1, MKK6 (Mitogen-Activated Protein Kinase Kinase) (UniProt P52564 1-334)
# T1 sequence: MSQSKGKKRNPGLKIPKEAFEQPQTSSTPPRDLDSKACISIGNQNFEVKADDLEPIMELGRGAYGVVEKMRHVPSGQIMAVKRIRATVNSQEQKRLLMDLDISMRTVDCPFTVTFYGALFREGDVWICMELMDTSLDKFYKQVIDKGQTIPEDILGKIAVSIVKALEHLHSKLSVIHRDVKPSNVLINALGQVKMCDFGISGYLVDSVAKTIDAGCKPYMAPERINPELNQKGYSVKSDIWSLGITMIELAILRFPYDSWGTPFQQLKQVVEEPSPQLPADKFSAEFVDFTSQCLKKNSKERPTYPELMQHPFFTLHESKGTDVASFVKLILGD
# [3] = biological target: MEK1 (Meiosis-specific serine/threonine protein kinase) (UniProt Q02750 1-393)
# [4] = biological target: JNK (c-Jun N-terminal Kinase)
# [5] = biological target: T2, MKK4 (Mitogen-Activated Protein Kinase Kinase 4) (UniProt P45985 1-399)
# T2 sequence: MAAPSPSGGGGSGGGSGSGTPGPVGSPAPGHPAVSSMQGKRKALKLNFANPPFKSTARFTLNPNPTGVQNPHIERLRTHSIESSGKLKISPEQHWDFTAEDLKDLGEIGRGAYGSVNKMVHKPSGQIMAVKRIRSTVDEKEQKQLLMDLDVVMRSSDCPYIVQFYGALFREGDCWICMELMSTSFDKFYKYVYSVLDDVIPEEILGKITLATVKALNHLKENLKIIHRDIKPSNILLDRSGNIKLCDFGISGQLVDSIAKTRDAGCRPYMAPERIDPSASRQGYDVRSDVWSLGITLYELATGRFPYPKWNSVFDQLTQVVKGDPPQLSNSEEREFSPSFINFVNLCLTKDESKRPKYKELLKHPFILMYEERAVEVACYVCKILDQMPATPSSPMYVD
# [6] = biological target: T3, PRAK (p38-Regulated/Activated Protein Kinase) (UniProt Q8IW41 1-473)
# T3 sequence: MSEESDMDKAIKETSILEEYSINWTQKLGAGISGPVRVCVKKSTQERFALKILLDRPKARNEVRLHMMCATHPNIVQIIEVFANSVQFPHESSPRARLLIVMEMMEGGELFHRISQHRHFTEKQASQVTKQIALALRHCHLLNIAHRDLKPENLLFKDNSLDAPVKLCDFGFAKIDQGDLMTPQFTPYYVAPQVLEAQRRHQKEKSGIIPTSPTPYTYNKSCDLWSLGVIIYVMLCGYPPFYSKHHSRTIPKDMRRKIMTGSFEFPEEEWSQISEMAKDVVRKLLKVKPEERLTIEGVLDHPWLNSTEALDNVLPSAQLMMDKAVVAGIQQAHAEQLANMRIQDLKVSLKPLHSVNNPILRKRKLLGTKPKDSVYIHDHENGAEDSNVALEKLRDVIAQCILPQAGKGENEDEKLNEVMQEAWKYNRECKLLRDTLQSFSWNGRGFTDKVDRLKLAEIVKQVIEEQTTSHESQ
binder,measurement,setting,value
YARAAARQARAKALARQLGVAA (not fully specified (C-terminus)) [MMI-0100 (YARAAARQARAKALARQLGVAA; SEQ ID NO: 1)],"Percent Activity (radiometric kinase assay, peptide at 100 µM)",[1],60 % activity
same,"Percent Activity (radiometric kinase assay, peptide at 100 µM)",[2],50 % activity
same,"Percent Activity (radiometric kinase assay, peptide at 100 µM)",[3],68 % activity
same,"Percent Activity (radiometric kinase assay, peptide at 100 µM)",[4],92 % activity
same,"Percent Activity (radiometric kinase assay, peptide at 100 µM)",[5],90 % activity
same,"Percent Activity (radiometric kinase assay, peptide at 100 µM)",[6],100 % activity
